T1: mouse mCherry-JUNO (mouse, UniProt Q9EQF4 20-222)
T1 construct: JUNO, mouse; CDS amplified from mouse cDNA; also called mouse JUNO; source: BHK-21 cells, transfected, on cells (mifepristone-inducible or cytomegalovirus promoter); also HEK293T cells, transfected, on cells; not shown: mCherry, internal (just after the signal peptide), kept
T1 sequence (looked up): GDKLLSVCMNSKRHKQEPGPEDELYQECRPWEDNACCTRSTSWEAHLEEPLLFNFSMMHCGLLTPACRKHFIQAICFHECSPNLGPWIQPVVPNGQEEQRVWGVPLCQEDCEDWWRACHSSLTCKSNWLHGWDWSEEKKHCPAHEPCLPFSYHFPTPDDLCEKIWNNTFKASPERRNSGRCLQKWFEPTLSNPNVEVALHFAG

B1: mouse IZUMO1-Venus (natural protein, UniProt Q9D9J7 22-397, looked up)
chain: CIKCDQFVTDALKTFENTYLNDHLPHDIHKNVMRMVNHEVSSFGVVTSAEDSYLGAVDENTLEQATWSFLKDLKRITDSDLKGELFIKELLWMLRHQKDIFNNLARQFQKEVLCPNKCGVMSQTLIWCLKCEKQLHICRKSLDCGERHIEVHRSEDLVLDCLLSWHRASKGLTDYSFYRVWENSSETLIAKGKEPYLTKSMVGPEDAGNYRCVLDTINQGHATVIRYDVTVLPPKHSEENQPPNIITQEEHETPVHVTPQTPPGQEPESELYPELHPELYPELIPTVAQNPEKKMKTRLLILLTLGFVVLVASIIISVLHFRKVSAKLKNASDEVKPTASGSKSDQSLSQQMGLKKASQADFNSDYSGDKSEATEN
notes: IZUMO1, mouse; CDS amplified from mouse cDNA; The methods say Venus or mTurquoise2 for IZUMO1, SPACA6 and CD9; the parent of the W148A mutant is named IZUMO-Venus; also called IZUMO-Venus; source: BHK-21 cells, transfected, on cells (mifepristone-inducible or cytomegalovirus promoter); also HEK293T cells, transfected, on cells; not shown: Venus, C-terminal, kept
B2: human IZUMO1 (natural protein, UniProt Q8IYV9 22-350, looked up)
chain: CVICDPSVVLALKSLEKDYLPGHLDAKHHKAMMERVENAVKDFQELSLNEDAYMGVVDEATLQKGSWSLLKDLKRITDSDVKGDLFVKELFWMLHLQKETFATYVARFQKEAYCPNKCGVMLQTLIWCKNCKKEVHACRKSYDCGERNVEVPQMEDMILDCELNWHQASEGLTDYSFYRVWGNNTETLVSKGKEATLTKPMVGPEDAGSYRCELGSVNSSPATIINFHVTVLPKMIKEEKPSPNIVTPGEATTESSISLQPLQPEKMLASRLLGLLICGSLALITGLTFAIFRRRKVIDFIKSSLFGLGSGAAEQTQVPKEKATDSRQQ
notes: IZUMO1, human; gene synthesised artificially (Integrated DNA technologies); also called IZUMO1 Human; source: BHK-21 cells, transfected, on cells; also HEK293T cells, transfected, on cells; not shown: Venus or mTurquoise2, C-terminal, kept

What was measured:
[1] = molecular target: T2, human JUNO (human, UniProt A6ND01 20-228); assay: live imaging-based adhesion molecule (LIAM) assay; BHK cells, non-inducible expression (cytomegalovirus promoter); separately transfected cells mixed in equal amounts 4 h after transfection, incubated 20 h, imaged every 6 min for 12 h at 40x, 37 °C, 5% CO2; read-outs: accumulation at the cell interface and translocation to the opposite cell, % of contacting cell pairs; conditions: partners not purified
T2 construct: JUNO, human; gene synthesised artificially (Integrated DNA technologies); also called JUNO Human; source: BHK-21 cells, transfected, on cells; not shown: mCherry, internal (just after the signal peptide), kept
T2 sequence (A6ND01 20-228): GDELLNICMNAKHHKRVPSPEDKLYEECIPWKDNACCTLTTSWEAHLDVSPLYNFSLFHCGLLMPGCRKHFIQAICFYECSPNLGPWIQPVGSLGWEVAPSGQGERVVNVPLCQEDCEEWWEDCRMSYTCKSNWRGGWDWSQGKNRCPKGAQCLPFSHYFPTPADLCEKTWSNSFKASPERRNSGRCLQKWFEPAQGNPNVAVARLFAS

[2] = molecular target: T1, mouse mCherry-JUNO; assay: as above; conditions: partners not purified

Binder | IZUMO1 accumulation (% of contacting cell pairs) [1] [%] | IZUMO1 accumulation (% of contacting cell pairs) [2] [%]
B1 | 50 | 72
B2 | 27 | 
